Test: yeast display, Sf9 membrane polyspecificity reagent, FACS + sequencing; frameworks hold sequencing errors
Summary of the method: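 Sorting gates, low and high (top ~1%), were placed on anti-HA fluorescence to track expression and on streptavidin fluorescence to track reagent binding. A clone's polyreactivity label is taken from the gate it came out of. The reagent was 10% biotinylated, detergent-solubilized Sf9 membrane, applied for 1 hour at 4 °C to galactose-induced yeast display cells.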

Row | Sequence | polyreactivity (PSR sort gate)
1 | QVQLVESGGGLVQAGGSLRLSCAASGSIFWRYSMGWYRQAPGKERELVAAINYSTTRTYYADSVKGRFTISRDNAKNTVYLQMNSLKPEDTAVYYCAADSRVDEGEYWGQGTQVTVSS | high polyreactivity
2 | QVQLVESGGGLVQAGGSLRLSCAASGSIFWSNAMGWYIQAPGKERELVAAITGGGTTNYADSVKGRFTISRDNAKNTVYLQMNSLKPEDTAVVYTVSSAQYDYWGQGTQVTVSS | low polyreactivity
3 | QVQLVESGGGLVQAGGSLRLSCAASGSIFWSYAMGWYRHAPGKESELVAAITYSGTSTYYADSVKGRFTISRDTAKNTVYLQMNSLKPEDTAVYYCAASPFSRSRNDYWGQGTQVTLSS | low polyreactivity
4 | QVQLVESGGGLVQAGGSLRLSCAASGSIFWSYAMGWYRQAPGKERELVAAIRRGGSTNYADSVKGRFTISRDNAKNTVYLQMNSLKPEDTAVYYCAKSRGVRREPPKYATTYNYWGQGTQVTVSS | low polyreactivity
5 | QVQLVESGGGLVQAGGSLRLSCAASGSIFWTYAMGWSRQAPGKERELVATITYSDGNTYYADSVKGRFTISRDNAKNTVYFQMNSLKPEDTAVYYCNADGIYATISGYRYDYWGQGTQVTVSS | low polyreactivity
6 | QVQLVESGGGLVQAGGSLRLSCAASGSIFWVYAMGWYRQAPGKEREFVAAITYSGGSTYYADSVKGRFTISRDNAKNTVYLQMNSLKPEDTAVYYCAADYDYDYGSRYYYWGQGTQVTVSS | low polyreactivity
7 | QVQLVESGGGLVQAGGSLRLSCAASGSIFWVYAMGWYRQAPGKERELVAAISNRGGSTYYSDSVKGRFTISRDNAKITVYLQMNSLKPEDTAVYYCAAVVAHHYYWGQGTQVTVSS | high polyreactivity
8 | QVQLVESGGGLVQAGGSLRLSCAASGSIFWWYTMGRYRQAPGKERELVAAITWNADGTYYADSVKGRFTISRDNAKNTVYLQMNSLKPEDTAVYYCAADQYYLDWGGGYDYWGQGPQVTVSS | low polyreactivity
9 | QVQLVESGGGLVQAGGSLRLSCAASGSIFWYNAMGWYIHAPWNERELVAAITSSSGRTRYADSEKGRFTISRDNAKNTVYLQMNSLKQEDTAVYYCAVAEGYSPAYLRDYWGQGTQVTVSS | high polyreactivity
10 | QVQLVESGGGLVQAGGSLRLSCAASGSIFWYNAMGWYRQAPGKERELVAAISRSGSRTYYADSVKGRFTISRDNAKNTVYVQMTSLKPEATAVYYCARVRPRGLYFVLHYDYWGQGTQVTVSS | high polyreactivity
11 | QVQLVESGGGLVQAGGSLRLSCAASGSIFWYNAMGWYRQAPGKERELVAAITSGGTTSYADSVKGRFTISRDNAKNTVYLQMNSLKPEDTAVYYCAKDWNDDQHSWDTPFDYWGQGTQVTVSS | low polyreactivity
12 | QVQLVESGGGLVQAGGSLRLSCAASGSIFWYNAMVWYRQAPGKERELVAAISYSGDRTYYADSVKGRFTISRDNAKYTVYLQMNSLKPEDTAFYYCAKAGTGFYNSWWEDYWGQGTQVTVSS | low polyreactivity
13 | QVQLVESGGGLVQAGGSLRLSCAASGSIFWYNSMGWYRQAPGKERELVAAISYRGGRTYYADSVKGRFTISRDNAKNTVYLQMNSLKPEDTAVYYCNAPRYLGGGQDALGDYWGQGTQVTVSS | high polyreactivity
14 | QVQLVESGGGLVQAGGSLRLSCAASGSIFWYYAMGWYRQAPGKERELVAAISGSGTRTYYADSVKGRFTISRDNAKNTVYLQMNSLKPEDTAVYYCAATAVRQSGRYLSSSGYDYWGQGTQVTVSS | high polyreactivity
15 | QVQLVESGGGLVQAGGSLRLSCAASGSIFWYYAMGWYRQAPGKERELVAAITGSGVRTYYADSVKGRFTISRDNAKNTVYLQMNSLKPEDTAVYYCNAVSSHSFYFYGDHNYWGQGTQVTVSS | low polyreactivity
16 | QVQLVESGGGLVQAGGSLRLSCAASGSIFWYYAMGWYRQAPGKERELVARITFSGSRTHYADSVKGRFTISRDNAKNTVYLQMNSLKPEDTSVYYCATDTVYGNDYWGQGTQVTVSS | low polyreactivity

Row | Sequence | polyreactivity (PSR sort gate)
17 | QVQLVESGGGLVQAGGSLRLSCAASGSIFWYYAMGWYRQAPGKERELVATITSGGTNYADSVKGRFTISRDNAKNTVYLQMNSLKPEDTAVYYCNADVSWSRIFYLGYDSNDYWGQGTQVTVSS | low polyreactivity
18 | QVQLVESGGGLVQAGGSLRLSCAASGSIFWYYGMGWYRQAPGKERELVAAISSGGSTNYADSVKVRFAISRDNAKNTVYLQMNSLKPEDTAVYYCAVRFTFPRYPASYSRYYYWGQGTQVTVSS | high polyreactivity
19 | QVQLVESGGGLVQAGGSLRLSCAASGSIFYANAMGWYRQAPGKERELVAAIDGGSTYYADSVKGRFTISRDNAKNTVYLQMNSLKPEDTAVYYCAADYFNYRGYTYLGDYWGQGTQVTVSS | low polyreactivity
20 | QVQLVESGGGLVQAGGSLRLSCAASGSIFYAYAMGWYRQAPGKERELVATISSVGSTYYADSVKGRFTISRDNAKNTVYLQMNSLKPEDTAVYYCAKQRIVVYKTGYDYWGQGTQVTVSS | low polyreactivity
21 | QVQLVESGGGLVQAGGSLRLSCAASGSIFYAYAMGWYTQAPGKERELVATISSVGSTYYADSVKGRFTISRDNAKNTVYLQMNSLKPEDTAVYYCAKQRIVVYKTGYDYWGQGTQVTVSS | low polyreactivity
22 | QVQLVESGGGLVQAGGSLRLSCAASGSIFYAYAMRWYRQAPGKERELVAVINSGGSTYYADSVKGRFTISRDNAKNTVYLQMHSLKPEDTAVYYCNATQDRGKYDYPPRGRGYYYWGQGTQVTVSS | high polyreactivity
23 | QVQLVESGGGLVQAGGSLRLSCAASGSIFYDAMGWYRQAPGKERELVAAITSSGGDTSYADSVKGRCTISRDNAKNTVYLQMNSLKPEDTAGYYCNADTYYVEYTAFDYWGQGTQVTVSS | low polyreactivity
24 | QVQLVESGGGLVQAGGSLRLSCAASGSIFYDNAMGWYRPAPGKERELVATIRGGGNTYYADSVKGRFTISRDNAKNTVYLQMNSLKPEDTAVYYCSKQSDFPGVPLVYGVYGYDYWGQGTQVTVSS | low polyreactivity
25 | QVQLVESGGGLVQAGGSLRLSCAASGSIFYDNAMGWYRQAPGKERELVAAIRGRGGSTYYADSVKGRFTISRDNAKNTVYLQMNSLKPVDTAVYYCAAERPIAVVRYYTYYYWGQGTQVTVSS | high polyreactivity
26 | QVQLVESGGGLVQAGGSLRLSCAASGSIFYDNAMGWYRQAPGKERELVASIRYSGVRTYYADSVKGRFTISRDNAKNTVYLQMNSLKPEDTAVYYCAADVYRQFYPFKSDYWGQGTQVTVSS | high polyreactivity
27 | QVQLVESGGGLVQAGGSLRLSCAASGSIFYDNAMGWYRQAPGKERELVATIRGGGNTYYADSVKGRFTISRDNAKNTVYLQMNSLKPEDTAVYYCAKQSDFPGVPLVYGVYGYDYWGQGTQVTVSS | low polyreactivity
28 | QVQLVESGGGLVQAGGSLRLSCAASGSIFYDYAMGWYRQAPGKERELVAAINSGDSTYYADSVKGRFTISRDNAKNTVYLQMNSLKPEDTAVYYCAATYFSPYIEYDYWGQGTQVTVSS | low polyreactivity
29 | QVQLVESGGGLVQAGGSLRLSCAASGSIFYDYAMGWYRQAPGKERELVAALTNDDSSTYYADSVKGRFTISRDNAKNTVYLQMNSLKPEDTAVYYCRFKYAVAHQFWVYRYDYWGQGTQVTVSS | low polyreactivity
30 | QVQLVESGGGLVQAGGSLRLSCAASGSIFYDYAMGWYRQAPGKERELVADITDDSTNYADSVKGRFTISRDNAKNTVYLQMNSLKPEDTAVYYCAVDWYWGWYWDGGVLTYYYWGQGTQVTVSS | low polyreactivity
31 | QVQLVESGGGLVQAGGSLRLSCAASGSIFYDYEMGWYRQAPGKERELVASINTGGSTNYADSVKGRFTISRDNAKNTVYLKMNSLKPEDTAVYYCNAPRGYPTSANHLDYWGQGTQVTVSS | low polyreactivity

Source: the nanobody polyreactivity screen of Harvey et al. (2022)
